According to paper PMC9969015:

Target: S-RBD protein with C-terminal human Fc-tag (receptor-binding domain of SARS-CoV-2 S protein)
Assay: flow cytometry on cells
Conditions: 100 μg/ml S-RBD, 1 mM Mn2+, β1-KO 293 T cells, read off a plot

Substance: wild-type α4β1 integrin expressed in β1-KO 293 T cells (from UniProt P13612;P05556) β1:D130A
- response (parent: est. 1.5): 0.95 relative MFI

Substance: wild-type α4β7 integrin expressed in β1-KO 293 T cells (from UniProt P13612;P26010) β7:D119A
- response (parent: est. 2.0): 1.2 relative MFI

Substance: wild-type α5β1 integrin expressed in β1-KO 293 T cells (from UniProt P08648;P05556) β1:D130A
- response (parent: est. 1.2): 0.93 relative MFI

Substance: wild-type αLβ2 integrin expressed in β1-KO 293 T cells (from UniProt P20701;P05107) αL:D137A
- response (parent: est. 1.3): 0.97 relative MFI
